Test results reported in paper PMC3342813 (2011).

T1: BT2127 (Bacteroides thetaiotaomicron, UniProt Q8A5V9)
T1 sequence (Q8A5V9 1-224): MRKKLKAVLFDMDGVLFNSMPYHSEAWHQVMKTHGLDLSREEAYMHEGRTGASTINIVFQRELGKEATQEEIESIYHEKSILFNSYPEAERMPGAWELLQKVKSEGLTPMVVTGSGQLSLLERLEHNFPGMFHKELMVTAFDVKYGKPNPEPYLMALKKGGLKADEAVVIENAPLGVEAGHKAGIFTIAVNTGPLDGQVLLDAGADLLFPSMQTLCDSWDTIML

B1: BT2127 (Bacteroides thetaiotaomicron VPI-5482) (protein)
chain: T1 sequence (Q8A5V9 1-224)

What was measured:
BT2127 = biological target: T1, BT2127; assay: steady-state competitive inhibition of pyrophosphate hydrolysis; format: biochemical
purified protein [1] = substrate: O=c1ccn([C@@H]2O[C@H](COP(=O)(O)O)[C@@H](O)[C@H]2O)c(=O)[nH]1; assay: purified protein; conditions: Mg2+; pH 7.5; 25.0 °C
purified protein [2] = substrate: O=P(O)(O)OCC(O)CO; assay: purified protein; conditions: Mg2+; pH 7.5; 25.0 °C
purified protein [3] = substrate: O=[N+]([O-])c1ccc(OP(=O)(O)O)cc1; assay: purified protein; conditions: Mg2+; pH 7.5; 25.0 °C

Molecule | Ki (BT2127) [µM] | Km (purified protein [1]) [µM] | kcat (purified protein [1]) [s⁻¹] | kcat/Km (purified protein [1]) [M⁻¹ s⁻¹] | Km (purified protein [2]) [µM] | kcat (purified protein [2]) [s⁻¹] | kcat/Km (purified protein [2]) [M⁻¹ s⁻¹] | Km (purified protein [3]) [µM] | kcat (purified protein [3]) [s⁻¹] | kcat/Km (purified protein [3]) [M⁻¹ s⁻¹]
O=P(O)(O)NP(=O)(O)O [imidodiphosphate] | 13 ± 1 |  |  |  |  |  |  |  |  | 
B1 |  | 2600 ± 400 | 0.15 | 60 | 4800 ± 300 | 0.35 | 70 | 50 ± 10 | 0.0019 | 40
